Literature values, collected in publication PMC8348223.

Assays:
Bax = Bax (UniProt Q07812)
Bcl-XL = Bcl-XL (UniProt Q07817)
Chain of Bcl-XL (Q07817 whole entry): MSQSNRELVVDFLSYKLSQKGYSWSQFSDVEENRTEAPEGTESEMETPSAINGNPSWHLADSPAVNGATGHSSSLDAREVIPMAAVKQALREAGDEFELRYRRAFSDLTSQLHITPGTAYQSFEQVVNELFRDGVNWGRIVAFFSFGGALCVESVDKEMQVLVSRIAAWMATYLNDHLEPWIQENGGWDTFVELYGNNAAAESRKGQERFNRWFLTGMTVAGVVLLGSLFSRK

Chain of tBid (P55957 61-195): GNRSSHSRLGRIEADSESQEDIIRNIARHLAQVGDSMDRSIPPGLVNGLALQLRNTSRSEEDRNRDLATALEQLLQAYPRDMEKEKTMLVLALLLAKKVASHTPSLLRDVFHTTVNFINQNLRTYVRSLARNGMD
Chain of Bax (Q07812 whole entry): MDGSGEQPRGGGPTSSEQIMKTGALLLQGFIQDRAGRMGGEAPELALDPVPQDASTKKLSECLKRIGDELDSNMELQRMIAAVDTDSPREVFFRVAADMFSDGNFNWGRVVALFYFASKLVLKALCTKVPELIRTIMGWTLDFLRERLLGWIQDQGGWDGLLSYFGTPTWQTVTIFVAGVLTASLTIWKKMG

Kd (Bax): 20 nM
Kd (Bcl-XL): 1 nM
Substance: tBid (from UniProt P55957)
